# Ends that are not written are not given here. Peptide text beside a SMILES is read from it. * marks the point of attachment. Biotin = O=C1N[C@H]2[C@H](CS[C@H]2CCCCC(=O)*)N1
# Molecular target: T1, PDZ protein (GST-PDZ fusion) (Homo sapiens, UniProt Q9C0E4)
# T1 construct: made in house; host or cells: E. coli (DH5alpha, BL21 or JM109)
# Assay: G' assay (10 uM PL peptide), results of TABLE 7 and TABLE 12
# Type: binding
# Method in brief: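 Biotinylated PL peptides at 10 uM (vs 20 uM in G^0 assay) bound to GST-PDZ fusions; PDZ protein at 5 ug/ml unless another concentration listed. Bound peptide read as A450 nm, classified 0–5 (0 = A450 0; 5 = A450 >4 repeated).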
# T1 sequence (Q9C0E4 whole entry, the tested form may be a part): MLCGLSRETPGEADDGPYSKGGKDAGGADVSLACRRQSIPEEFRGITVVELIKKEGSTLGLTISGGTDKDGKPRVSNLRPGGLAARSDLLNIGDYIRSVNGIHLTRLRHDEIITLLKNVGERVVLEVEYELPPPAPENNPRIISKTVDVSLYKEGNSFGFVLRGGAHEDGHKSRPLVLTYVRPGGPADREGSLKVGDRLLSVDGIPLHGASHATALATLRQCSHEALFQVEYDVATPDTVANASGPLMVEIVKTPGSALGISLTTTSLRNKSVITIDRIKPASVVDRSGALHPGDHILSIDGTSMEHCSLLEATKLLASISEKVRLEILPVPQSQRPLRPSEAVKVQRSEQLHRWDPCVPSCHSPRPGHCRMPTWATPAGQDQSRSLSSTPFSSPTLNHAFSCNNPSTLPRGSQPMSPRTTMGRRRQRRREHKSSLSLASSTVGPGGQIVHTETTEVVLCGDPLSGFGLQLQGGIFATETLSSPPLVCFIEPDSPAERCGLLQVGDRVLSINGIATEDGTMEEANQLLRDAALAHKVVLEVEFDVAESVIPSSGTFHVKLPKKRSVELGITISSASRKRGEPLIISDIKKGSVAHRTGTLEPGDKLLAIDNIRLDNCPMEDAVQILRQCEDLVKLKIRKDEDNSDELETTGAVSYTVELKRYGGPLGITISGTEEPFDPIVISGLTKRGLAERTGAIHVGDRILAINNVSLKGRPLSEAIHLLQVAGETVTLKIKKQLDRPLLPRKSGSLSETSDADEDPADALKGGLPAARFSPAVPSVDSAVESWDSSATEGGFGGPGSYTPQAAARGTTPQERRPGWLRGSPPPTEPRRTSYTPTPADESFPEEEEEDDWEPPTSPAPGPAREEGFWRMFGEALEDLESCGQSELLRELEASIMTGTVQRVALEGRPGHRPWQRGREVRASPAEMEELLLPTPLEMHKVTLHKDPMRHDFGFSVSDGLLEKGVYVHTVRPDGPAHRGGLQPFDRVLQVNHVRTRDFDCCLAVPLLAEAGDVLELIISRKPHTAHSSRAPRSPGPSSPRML
Molecule,"Classification (PDZ KIAA1719, PDZ Domain 3)","Classification (PDZ KIAA1719, PDZ Domain 2)","Classification (PDZ KIAA1719, PDZ Domain 5)","Classification (PDZ KIAA1719, PDZ Domain 6)"
A2AC_HUMAN (Modified) (Biotin-DFRPSFKHILFRRARRGFRQ; not fully specified),5 (A450 nm of 4 more than 2× repeated),–,–,–
LNETTETQRTLLNGDLQTSI (Biotin-LNETTETQRTLLNGDLQTSI) [SSTR2 (somatostatin recepor 2)],–,–,–,1 (A450 nm 0-1)
CC[C@H](C)[C@H](NC(=O)[C@H](C)NC(=O)[C@H](CC(C)C)NC(=O)[C@H](Cc1c[nH]c2ccccc12)NC(=O)[C@H](Cc1c[nH]cn1)NC(=O)[C@H](CCC(N)=O)NC(=O)[C@H](CC(C)C)NC(=O)[C@H](CCC(N)=O)NC(=O)[C@H](Cc1ccccc1)NC(=O)[C@H](CCC(N)=O)NC(=O)[C@H](CCCNC(=N)N)NC(=O)[C@@H](NC(=O)[C@H](CC(=O)O)NC(=O)[C@H](CCCNC(=N)N)NC(=O)[C@H](CCC(N)=O)NC(=O)[C@H](C)NC(=O)[C@@H](NC(=O)[C@H](CC(C)C)NC(=O)[C@H](Cc1c[nH]cn1)NC(=O)[C@H](Cc1c[nH]cn1)NC(=O)CCCC[C@@H]1SC[C@@H]2NC(=O)N[C@@H]21)C(C)C)[C@@H](C)CC)C(=O)O [noradrenaline transporter] (Biotin-HHLVAQRDIRQFQLQHWLAI-OH; C-terminus assumed),–,–,2 (A450 nm 1-2),2 (A450 nm 1-2)
CC[C@H](C)[C@H](NC(=O)[C@H](CO)NC(=O)[C@@H](NC(=O)[C@H](Cc1ccccc1)NC(=O)[C@H](CO)NC(=O)CCCC[C@@H]1SC[C@@H]2NC(=O)N[C@@H]21)[C@@H](C)O)C(=O)N[C@@H](CC(C)C)C(=O)N[C@H](C(=O)N[C@@H](CS)C(=O)N[C@@H](Cc1c[nH]cn1)C(=O)N[C@@H](CCC(N)=O)C(=O)N[C@@H](CCCNC(=N)N)C(=O)N[C@@H](CCCNC(=N)N)C(=O)N[C@H](C(=O)N[C@@H](CCC(N)=O)C(=O)N[C@@H](CCCNC(=N)N)C(=O)N[C@@H](CCCCN)C(=O)N[C@@H](CCC(=O)O)C(=O)N[C@H](C(=O)N[C@H](C(=O)N[C@@H](C)C(=O)O)C(C)C)[C@@H](C)O)[C@@H](C)O)[C@@H](C)O [GluR5-2 (rat)],1 (A450 nm 0-1),–,–,–

# Continued, in another order:
"Classification (PDZ KIAA1719, PDZ Domain 3)","Classification (PDZ KIAA1719, PDZ Domain 2)",Molecule,"Classification (PDZ KIAA1719, PDZ Domain 5)","Classification (PDZ KIAA1719, PDZ Domain 6)"
–,1 (A450 nm 0-1),CKR5_HUMAN (ERASSVYTRSTGEQEISVGL),1 (A450 nm 0-1),–
1 (A450 nm 0-1),–,ALVLIAFCIIRRRPSAYQAL (Biotin-ALVLIAFCIIRRRPSAYQAL) [CD68],–,1 (A450 nm 0-1)

# — patent US20050282743A1, “Molecular interactions in cells” (Arbor Vita Corporation, priority 2001, published 2005)
